Common to all, as to settings: both partners purified
Test [1] concerns the target T1, SARS-CoV-2 RBD (aa 334-527) (Severe acute respiratory syndrome …, UniProt P0DTC2).
T1 construct: also called recombinant RBD; monomeric RBD
As to the kind of experiment: SPR.

Test [2] has as its target T2, HKU3-1 S protein ectodomain (Bat SARS coronavirus HKU3-1 (DQ022305), UniProt Q3LZX1).
T2 construct: source: Drosophila S2 cells, secreted, purified (Strep-Tactin XT, Superose 6 SEC)
The test is described as follows: ELISA; […], room temperature; […]. (An ELISA detects its analyte on a solid surface through an enzyme-linked reagent.)

The target in test [3] is T3, BM48-31 S protein ectodomain (Bat coronavirus BM48-31/BGR/2008 …).
T3 construct: also called sarbecovirus BM48-31 S protein
As to the kind of experiment: ELISA; […], room temperature; […].

The target of test [4] is RaTG13 S protein ectodomain (Bat coronavirus RaTG13 (MN996532), UniProt A0ABF7PLN6). The test is described as follows: ELISA; […], room temperature; […].
The target in test [5] is RsSHC014 S protein ectodomain (Bat SARS-like coronavirus RsSHC014 …, UniProt U5WLK5). The test is described as follows: ELISA; […], room temperature; […].
The target in test [6] is CoVZC45 S protein ectodomain (Bat SARS-like coronavirus CoVZC45 …, UniProt A0A2R3SUW7). As to the kind of experiment: ELISA; […], room temperature; […].
Test [7] has as its target WIV-1 S protein ectodomain (Bat SARS-like coronavirus WIV1 …, UniProt U5WI05). As to the kind of experiment: ELISA; […], room temperature; […].

The values below come from article PMC11650997 (Journal of Virology, 2024).

A word on the Kd: it is the equilibrium constant for the complex coming apart. Higher therefore signals lower affinity. In general, koff refers to the first-order rate constant of dissociation. A lower koff goes with a long-lived complex. By kon is commonly meant the rate constant with which the complex forms.

B1: pT1616 (human monoclonal antibody, IgG1) (antibody, V domains shown)
VH: QVQLVQSGAEVKKPGSSVKVSCKASGGTFSSYTISWVRQAPGQGLECMGRIIPILGIANYAQKFQGRVTITADKSTSIAYMEVSSLRSEDTAVYYCATEVGYSGYGSAEYFNHWGQGTPVTVSS
VL: QSVLTQPPSVSGAPGQRVTISCTGSNSNIGAGYDVHWYQQLPGTAPKLLIYANNNRPSGVPDRFSGSRSGTSASLVITGLQADDEADYYCQSYDSSLTGSLFGGGTKLTVL
notes: also called bnAb pT1616; nAb pT1616; source: HEK293ExPi, transfected, purified from the supernatant (Protein G, SEC)
In test [1], B1 displayed a Kd of 0.24 nM, a koff of 0.00019 s⁻¹ and a kon of 780000 M⁻¹ s⁻¹.

B2: pT1616 IgG1 (antibody, V domains shown)
VH: QVQLVQSGAEVKKPGSSVKVSCKASGGTFSSYTISWVRQAPGQGLECMGRIIPILGIANYAQKFQGRVTITADKSTSIAYMEVSSLRSEDTAVYYCATEVGYSGYGSAEYFNHWGQGTPVTVSS
VL: QSVLTQPPSVSGAPGQRVTISCTGSNSNIGAGYDVHWYQQLPGTAPKLLIYANNNRPSGVPDRFSGSRSGTSASLVITGLQADDEADYYCQSYDSSLTGSLFGGGTKLTVL
notes: also called bnAb pT1616; nAb pT1616; source: HEK293ExPi, transfected, purified from supernatant (Protein G, SEC)
B2: the binding result is listed as “binds” in test [2]; “no binding (tested: 2 µg/mL antibody)” in test [3]; “binds” in test [4]; “binds” in test [5]; “binds” in test [6]; “binds” in test [7].
